“Also recorded” adds a separate entry of the source.

The test system of assay [1] is platelets. Description: Platelet adhesion from whole blood on protein patterned surfaces (percentage of filled dots). To be noted: 2 μm dots array, four normal donors. Type of assay: cell-based, human. How it is done:
For the fabrication of protein patterns, specific platelet adhesive proteins or platelet antibodies were directly patterned on bare glass substrates by microcontact printing (FIG. 1a). After protein patterning the rest of the glass substrate was blocked with bovine serum albumin (BSA) to avoid non specific capture in non selected areas. Characterization of the protein pattern was carried out by immunofluorescence to assure good homogenous coverage of the protein pattern FIG. 14(ii) along all the patterned area. Samples were incubated with 1 mL of citrated or hirudinised whole blood for a maximum of 30 minutes.
The same blood sample exposed to a number of identical substrates gave small deviations; lower than 10%, in the platelet adhesion (FIG. 4b). We have quantified the platelet adhesion from whole blood on fibrinogen, vWF and anti-CD42b surfaces for four different normal donors. […]
The probability that a platelet is captured on a single spot depends on the probability that the platelet touches the protein spot, and on the binding affinity of the platelet for the protein matrix. […] We calculated the mean platelet adhesion on antibody, fibrinogen and vWF patterned surfaces on 2 μm and 6 μm dots arrays. […] A mean platelet adhesion of 45%, 10% and 15% were calculated for the antibody, the fibrinogen and the vWF surfaces, respectively. […]

Assay [2] concerns the target T1, platelet fibrinogen receptor αIIbβ3 (GPIIb/IIIa) (Homo sapiens, UniProt P05106+P08514).
T1 construct: incubation of whole blood with different doses of abciximab (Reopro®); endogenous in cells; host or cells: platelets in donor whole blood
Description: Platelet adhesion to fibrinogen patterned substrate, whole blood preincubated with abciximab in vitro. Type of assay: cell-based. The text has this:
The single platelet counting method enables high resolution and reproducible platelet adhesion and function assays in contrast with fluorescence measurements of platelet adhesion. The drug abciximab inhibits platelet adhesion to fibrinogen. […] We compare this platelet adhesion quantification method with a classical method which consists on the measure of the fluorescence intensity originated by the platelets adhering to the surface (which have been fluorescently labelled after adhesion took place). […] Subsequently the samples were washed with buffers, fixed and labelled using platelet specific antibodies fluorescently labelled. After the samples were mounted on microscopy glass slides and imaged. (i)-(iii) show single platelet arrays formed on 6 micron fibrinogen dots array; (iv)-(vi) show platelets adhering to 12 micron fibrinogen dots array; (vii)-(ix) show platelets adhering to 24 micron fibrinogen dots array. […] It is more difficult to quantify the number of platelets adhering to the 12 or 24 micron fibrinogen dots. The effect of the drug in platelet adhesion was quantified using two methods, single platelet counting method, and fluorescence method. (B) Graphs showing the fluorescence intensity measured on samples incubated with blood samples preincubated with different doses of abxicimab (x axes units: abciximab concentration (g/mL); y axes units: fluorescence, arbitrary units). (C) Graph showing the percentage of filled (occupied by platelets) dots on 6 microns fibrinogen dots array on samples incubated with blood samples preincubated with different doses of abxicimab (x axes units: abciximab concentration (g/mL); y axes units: percentage of 6 micron fibrinogen dots occupied by platelets).
In parallel flow cytometry is used to quantify the inhibition of fibrinogen-platelet binding resulting from incubation of whole blood with different doses of abciximab (Reopro®). To perform the measurements by flow cytometry, platelets were pre-activated with thrombin-receptor-activating peptide. […]

Assay [3] concerns the target T2, GP Ilb/IIIa receptor (Homo sapiens, UniProt P05106+P08514).
T2 construct: blood samples from 10 cardiovascular patients undergoing Percutaneous Coronary Interventions (PCI); endogenous in cells; host or cells: platelets in blood of PCI patients
In words: Platelet adhesion on fibrinogen patterned substrate in PCI patients before and after Reopro administration. It counts as in vivo. To be noted: for platelet adhesion after administration: 0.25 mg/kg dose during PCI. How it is done: The above in-vitro results were validated in a small-scale, targeted clinical study conducted at the Clinical Research Centre in Beaumont Hospital. The same protein patterned substrate was tested with blood samples from 10 cardiovascular patients undergoing Percutaneous Coronary Interventions (PCI). Three patients who received a 0.25 mg/kg dose of Reopro® during the procedure had their platelet adhesion measured using the method of the present invention before Reopro® administration (image i of FIG. 10), 10 minutes after Reopro® administration (image ii of FIG. 10), and between 20 and 24 hours after Reopro® administration (image iii of FIG. 10).
Multiple fluorescent dots on the grid indicates presence of adhering platelets (i).

In assay [1], von Willebrand factor [vWF] showed a mean platelet adhesion of 15%.
As to abciximab, the “platelet adhesion to the fibrinogen substrate after abciximab treatment” value in assay [2] (blood preincubated with abciximab (20 μg/mL), 2 and 6 μm dot arrays) was “do not adhere to the fibrinogen substrate”. For the same substance, in assay [2] (in vitro, 1.5 μg/ml Reopro, CVD patients on aspirin and clopidogrel vs type 2 diabetes patients on aspirin), the “inhibition of platelet adhesion in CVD patients compared to the diabetic patients” value is on record as “increased inhibition”. The “Reopro's effects on platelet adhesion across population groups” value in assay [2] (in vitro, 1.5 μg/ml Reopro, normal donors, CVD patients, diabetic patients) is recorded as “effects appear greater in CVD patients than in normal or diabetic patients”. In addition, the “platelet adhesion after administration” value is “increasing adhesion” in assay [3] (20-24 hours after administration) and “low adhesion; also recorded: limited platelet adhesion” in assay [3] (10 minutes after administration, listed as Reopro®, 0.25 mg/kg). Further, the “platelet adhesion after administration (fluorescence images, one subject)” value in assay [3] (21 h after administration) was “recovery of adhesiveness”.
Substance fibrinogen yielded a mean platelet adhesion in assay [1] of 10%.

The record behind these values is patent US9939430B2, “Platelet analysis” (Dublin City University, priority 2008, dated 2018).
